Literature values in publication PMC3587688.

Target: ephrin-B2 (Homo sapiens) (UniProt P52799)
Sequence (P52799 28-333): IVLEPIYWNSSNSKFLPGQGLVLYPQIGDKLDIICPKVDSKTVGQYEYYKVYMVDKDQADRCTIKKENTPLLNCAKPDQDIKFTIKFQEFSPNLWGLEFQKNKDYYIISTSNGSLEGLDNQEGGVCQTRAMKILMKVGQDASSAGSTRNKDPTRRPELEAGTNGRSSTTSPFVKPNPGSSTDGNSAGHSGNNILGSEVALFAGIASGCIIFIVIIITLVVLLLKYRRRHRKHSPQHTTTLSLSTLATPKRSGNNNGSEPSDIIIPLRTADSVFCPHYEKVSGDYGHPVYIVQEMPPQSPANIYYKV

Chain of HeV-G (O89343 whole entry): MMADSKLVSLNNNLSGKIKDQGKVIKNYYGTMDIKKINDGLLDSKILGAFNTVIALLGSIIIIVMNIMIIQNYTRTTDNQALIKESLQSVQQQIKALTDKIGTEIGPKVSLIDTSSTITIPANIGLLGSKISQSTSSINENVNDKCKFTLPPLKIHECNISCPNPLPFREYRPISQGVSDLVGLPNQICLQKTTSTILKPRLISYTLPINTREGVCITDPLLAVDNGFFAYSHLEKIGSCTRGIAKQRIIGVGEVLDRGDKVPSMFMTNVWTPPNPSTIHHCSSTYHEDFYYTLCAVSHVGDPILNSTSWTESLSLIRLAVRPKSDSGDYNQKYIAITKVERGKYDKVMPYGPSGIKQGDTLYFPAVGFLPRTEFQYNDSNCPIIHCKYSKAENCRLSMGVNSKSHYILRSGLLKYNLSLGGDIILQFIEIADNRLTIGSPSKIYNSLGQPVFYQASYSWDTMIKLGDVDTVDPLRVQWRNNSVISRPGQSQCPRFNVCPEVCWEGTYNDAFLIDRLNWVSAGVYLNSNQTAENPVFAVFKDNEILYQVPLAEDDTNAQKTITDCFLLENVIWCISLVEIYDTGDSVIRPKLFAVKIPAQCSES

HeV-G (from UniProt O89343)
Kd: 570 pM
